According to article PMC9765892, “Molecular identification and functional characterization of two glycosyltransferases genes from Fallopia multiflora” (Frontiers in Plant Science, 2022):

Tests used:
[1] = target: T1, FmUGT1 (Pleuropterus multiflorus, UniProt A0A9E7V1Q5); assay: HPLC glycosylation assay; Lineweaver-Burk plot; assay type: biochemical; conditions: 0.8 mM UDP-glucose; 0.05 M Tris-HCl; 5-480 μM substrate; pH and temperature of kinetics not stated; substrate assigned from methods
T1 construct: gene UGT; full length, 533 residues (ORF 1602 bp); pET-32a (BamH I) in E. coli Transetta (DE3), Ni-NTA purified
T1 sequence (A0A9E7V1Q5 entry or part of it): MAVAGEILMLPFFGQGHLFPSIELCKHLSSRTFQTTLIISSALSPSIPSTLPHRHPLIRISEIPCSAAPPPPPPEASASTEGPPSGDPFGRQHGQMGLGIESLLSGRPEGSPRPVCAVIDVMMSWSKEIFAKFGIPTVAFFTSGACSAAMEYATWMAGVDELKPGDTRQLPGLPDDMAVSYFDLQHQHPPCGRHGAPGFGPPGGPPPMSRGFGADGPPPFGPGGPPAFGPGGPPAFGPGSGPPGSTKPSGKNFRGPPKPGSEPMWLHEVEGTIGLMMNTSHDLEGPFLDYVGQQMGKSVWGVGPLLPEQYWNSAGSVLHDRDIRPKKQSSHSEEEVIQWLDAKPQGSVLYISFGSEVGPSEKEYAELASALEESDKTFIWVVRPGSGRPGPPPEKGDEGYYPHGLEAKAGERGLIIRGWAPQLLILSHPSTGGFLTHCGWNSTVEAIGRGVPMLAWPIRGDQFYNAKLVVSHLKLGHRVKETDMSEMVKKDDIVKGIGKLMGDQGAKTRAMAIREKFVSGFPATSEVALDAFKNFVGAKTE
Description: HPLC glycosylation assay; Lineweaver-Burk plot on FmUGT1 | using THSG and emodin as the substrate for FmUGT1 and FmUGT2, respectively

[2] = substrate: Cc1cc(O)c2c(c1)C(=O)c1cc(O)cc(O)c1C2=O; assay: HPLC glycosylation assay; Lineweaver-Burk plot; assay type: biochemical, Pleuropterus multiflorus; conditions: 0.8 mM UDP-glucose; 0.05 M Tris-HCl; 5-480 μM substrate; pH and temperature of kinetics not stated; substrate assigned from methods
Description: HPLC glycosylation assay; Lineweaver-Burk plot on FmUGT2 | using THSG and emodin as the substrate for FmUGT1 and FmUGT2, respectively

Question: How did the Km [1] turn out when OC[C@H]1O[C@@H](Oc2c(O)cc(O)cc2/C=C/c2ccc(O)cc2)[C@H](O)[C@@H](O)[C@@H]1O [compound 1, THSG] was run?
Answer: 236 µM

B1: FmUGT2 (Pleuropterus multiflorus) (protein)
chain: MTISKTANLVLIPAPGMGHLAPAIELAKHLVARDPRLSITVLLIKGFVPEETVESYILSLKSNSSLLNQGIGFIDIPQIDLNSARPSFLTHMNAYQPKVKEAIEGLRSAGPLPVAGLLVDMFCTSTIDVATELGLPSYVFFTSGAGLLRLFFHLHGLGVDVAQEYDVVRSPDTLLEIPGFRNPVPVKVLPGRFLSKDGQSSTFLRLADKFRQAKGILVNTCMEIDRDLIQSMSQQDIEIPPIYPVGPILNLPTEDDHGHDDDESSGKDPITRWLDDQPPRSVVFLCFGSRGTFNDTQIKEIAVGLERSGQRFLWSLRQRPGETGVPLELDDPSKVLPEGFFERTAEKGRVIGWAPQARVLAHKAVGAFVSHCGWNSTLESFWYGVPIAAWPIYAEQQLNAFVLVKELGLATEIRIDYCQDFGINMVVKAEEVEDGINKAMKETEVKKKVKEMCDKARKALEEGGSSYESIGRFIEVVFKNLP
notes: full length, 482 residues (ORF 1449 bp); pET-32a (BamH I) in E. coli Transetta (DE3), Ni-NTA purified
Question: B1 was tested. Which Km [2] did it give?
Answer: 185 µM

Question: What about the kcat [2] of the same molecule?
Answer: 0.1413 s⁻¹
